The text below walks through data of the supplement of paper PMC9112550, “Optimization of the antimicrobial peptide Bac7 by deep mutational scanning” (BMC Biology, 2022).

In this data set the test system is Escherichia coli TOP10. As to the kind of experiment: shrunken log2 fold change of peptide-encoding DNA abundance (4.5 h post-induction vs induction); higher = less antimicrobial activity (less host growth inhibition). The settings on record: time post-induction: 4.5 h; library: site-saturation at positions 5, 18, 19, 20.
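Also: peptides expressed intracellularly from a pBAD plasmid library in pooled LB shake-flask culture, induced with 0.3% L-arabinose, DNA abundance read by NGS, three biological replicates, DESeq2 with apeglm shrinkage.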

Consider RRIRKRPPRLPRPRPRPYGHPRP, for which the “shrunken log2 fold change” value was -0.162.

Regarding RRIRPRPPRLPRPRPRPDSYPRP, the “shrunken log2 fold change” value was -0.422.

Turning to RRIRERPPRLPRPRPRPCCQPRP, the “shrunken log2 fold change” value is -0.485.

With RRIRKRPPRLPRPRPRPPNCPRP, the “shrunken log2 fold change” value came out at 0.0388.

As to RRIRQRPPRLPRPRPRPYLFPRP, the “shrunken log2 fold change” value was -0.509.

For RRIRDRPPRLPRPRPRPVASPRP, the “shrunken log2 fold change” value amounted to 0.0264.

Consider RRIRWRPPRLPRPRPRPDIYPRP, for which the “shrunken log2 fold change” value was -0.0594.

RRIRKRPPRLPRPRPRPFEPPRP: the “shrunken log2 fold change” value was 0.00335.

In the case of RRIRGRPPRLPRPRPRPCFFPRP, the “shrunken log2 fold change” value amounted to 0.392.

As for RRIRLRPPRLPRPRPRPYKQPRP, the “shrunken log2 fold change” value was -0.0145.

Turning to RRIRWRPPRLPRPRPRPKMHPRP, the “shrunken log2 fold change” value came to 0.386.

Consider RRIRIRPPRLPRPRPRPAAIPRP, for which the “shrunken log2 fold change” value is -0.199.

On to RRIRLRPPRLPRPRPRPGRHPRP, for which the “shrunken log2 fold change” value was 0.0767.

With RRIRERPPRLPRPRPRPGADPRP, the “shrunken log2 fold change” value is 0.146.

Take RRIRNRPPRLPRPRPRPGAQPRP: the “shrunken log2 fold change” value stood at 0.0369.

Turning to RRIRRRPPRLPRPRPRPMLRPRP, the “shrunken log2 fold change” value was found to be 0.854.

RRIRCRPPRLPRPRPRPYDNPRP: the “shrunken log2 fold change” value is -0.498.

As for RRIRRRPPRLPRPRPRPRNRPRP, the “shrunken log2 fold change” value was -0.0263.

In the case of RRIRARPPRLPRPRPRPSCGPRP, the “shrunken log2 fold change” value came out at 0.287.

Regarding RRIRPRPPRLPRPRPRPATVPRP, the “shrunken log2 fold change” value is -0.0314.

In the case of RRIRWRPPRLPRPRPRPVVKPRP, the “shrunken log2 fold change” value is -0.322.

RRIRFRPPRLPRPRPRPAHYPRP: the “shrunken log2 fold change” value was -0.059.

Consider RRIRIRPPRLPRPRPRPKTQPRP, for which the “shrunken log2 fold change” value was -0.0269.

Regarding RRIRQRPPRLPRPRPRPNVRPRP, the “shrunken log2 fold change” value is 0.0221.

On to RRIRPRPPRLPRPRPRPLKGPRP, for which the “shrunken log2 fold change” value is 0.045.

For RRIRIRPPRLPRPRPRPFNRPRP, the “shrunken log2 fold change” value is 0.0284.

On to RRIRERPPRLPRPRPRPGFQPRP, for which the “shrunken log2 fold change” value was -0.104.

As for RRIRTRPPRLPRPRPRPRFTPRP, the “shrunken log2 fold change” value was determined as 0.0679.

For the sequence RRIRQRPPRLPRPRPRPKIWPRP, the “shrunken log2 fold change” value amounted to 0.362.

Take RRIRLRPPRLPRPRPRPVTSPRP: the “shrunken log2 fold change” value was -0.0743.

RRIRFRPPRLPRPRPRPPQIPRP: the “shrunken log2 fold change” value was 0.241.

Turning to RRIRDRPPRLPRPRPRPIKFPRP, the “shrunken log2 fold change” value is -0.236.

As for RRIRDRPPRLPRPRPRPIDYPRP, the “shrunken log2 fold change” value was -0.0396.

In the case of RRIRWRPPRLPRPRPRPIDNPRP, the “shrunken log2 fold change” value is -0.406.

Consider RRIRDRPPRLPRPRPRPGDLPRP, for which the “shrunken log2 fold change” value is 0.178.

As to RRIRERPPRLPRPRPRPHDSPRP, the “shrunken log2 fold change” value was -0.00973.

Consider RRIRPRPPRLPRPRPRPTYKPRP, for which the “shrunken log2 fold change” value was -0.455.

For the sequence RRIRFRPPRLPRPRPRPTSYPRP, the “shrunken log2 fold change” value is -0.43.

As for RRIRIRPPRLPRPRPRPKNTPRP, the “shrunken log2 fold change” value was -0.695.

RRIRPRPPRLPRPRPRPCYAPRP: the “shrunken log2 fold change” value was -0.414.

As to RRIRNRPPRLPRPRPRPQHVPRP, the “shrunken log2 fold change” value amounted to 0.000105.

For the sequence RRIRNRPPRLPRPRPRPVRHPRP, the “shrunken log2 fold change” value is -0.0637.

For RRIRTRPPRLPRPRPRPNSFPRP, the “shrunken log2 fold change” value is -0.00453.

Consider RRIRFRPPRLPRPRPRPALLPRP, for which the “shrunken log2 fold change” value is -0.00442.

Regarding RRIRERPPRLPRPRPRPWFAPRP, the “shrunken log2 fold change” value was -0.276.

In the case of RRIRPRPPRLPRPRPRPHMNPRP, the “shrunken log2 fold change” value was -0.6.

On to RRIRERPPRLPRPRPRPHFCPRP, for which the “shrunken log2 fold change” value is -0.117.

Take RRIRERPPRLPRPRPRPVQDPRP: the “shrunken log2 fold change” value was -0.0228.

Consider RRIRARPPRLPRPRPRPIRWPRP, for which the “shrunken log2 fold change” value is 0.211.

Take RRIRPRPPRLPRPRPRPVRCPRP: the “shrunken log2 fold change” value was 0.545.

As for RRIRQRPPRLPRPRPRPADRPRP, the “shrunken log2 fold change” value is 0.0738.

RRIRDRPPRLPRPRPRPRDGPRP: the “shrunken log2 fold change” value was found to be 0.81.

For the sequence RRIRCRPPRLPRPRPRPTHEPRP, the “shrunken log2 fold change” value stood at 0.628.

Turning to RRIRFRPPRLPRPRPRPQDVPRP, the “shrunken log2 fold change” value is -0.193.

In the case of RRIRMRPPRLPRPRPRPDCMPRP, the “shrunken log2 fold change” value was determined as 2.24.

For the sequence RRIRGRPPRLPRPRPRPRVTPRP, the “shrunken log2 fold change” value came to 0.744.

For the sequence RRIRWRPPRLPRPRPRPGYPPRP, the “shrunken log2 fold change” value is -0.251.

In the case of RRIRLRPPRLPRPRPRPTKQPRP, the “shrunken log2 fold change” value came to 0.103.

For the sequence RRIRVRPPRLPRPRPRPYAWPRP, the “shrunken log2 fold change” value came to 0.0346.

In the case of RRIRVRPPRLPRPRPRPSCVPRP, the “shrunken log2 fold change” value is -0.583.

As for RRIRLRPPRLPRPRPRPRNVPRP, the “shrunken log2 fold change” value was -0.116.

With RRIRERPPRLPRPRPRPYPHPRP, the “shrunken log2 fold change” value was -0.0727.

Take RRIRSRPPRLPRPRPRPAVPPRP: the “shrunken log2 fold change” value is 0.168.

Turning to RRIRRRPPRLPRPRPRPNFEPRP, the “shrunken log2 fold change” value turned out to be 0.413.

RRIRYRPPRLPRPRPRPNILPRP: the “shrunken log2 fold change” value is -1.9.

On to RRIRSRPPRLPRPRPRPYSNPRP, for which the “shrunken log2 fold change” value is -0.549.

Consider RRIRCRPPRLPRPRPRPDPIPRP, for which the “shrunken log2 fold change” value was -0.0573.

RRIRSRPPRLPRPRPRPFICPRP: the “shrunken log2 fold change” value is -0.163.

Consider RRIRHRPPRLPRPRPRPWACPRP, for which the “shrunken log2 fold change” value is -0.051.

Take RRIRQRPPRLPRPRPRPECFPRP: the “shrunken log2 fold change” value stood at 0.398.

For RRIRGRPPRLPRPRPRPRFTPRP, the “shrunken log2 fold change” value was 0.582.

With RRIRRRPPRLPRPRPRPFCQPRP, the “shrunken log2 fold change” value is -0.252.

With RRIRHRPPRLPRPRPRPCQLPRP, the “shrunken log2 fold change” value is -0.0748.

Turning to RRIRMRPPRLPRPRPRPKQEPRP, the “shrunken log2 fold change” value is 3.07.

For RRIRERPPRLPRPRPRPAVVPRP, the “shrunken log2 fold change” value is -0.171.

In the case of RRIRPRPPRLPRPRPRPCDDPRP, the “shrunken log2 fold change” value was determined as 0.0508.

Regarding RRIRFRPPRLPRPRPRPDVFPRP, the “shrunken log2 fold change” value was -0.119.

Take RRIRGRPPRLPRPRPRPSYVPRP: the “shrunken log2 fold change” value is 0.112.

As for RRIRDRPPRLPRPRPRPESKPRP, the “shrunken log2 fold change” value amounted to 0.0201.

Turning to RRIRNRPPRLPRPRPRPGDYPRP, the “shrunken log2 fold change” value was 0.0582.

As for RRIRERPPRLPRPRPRPHNTPRP, the “shrunken log2 fold change” value is -0.731.

With RRIRKRPPRLPRPRPRPLTWPRP, the “shrunken log2 fold change” value was 0.13.

In the case of RRIRPRPPRLPRPRPRPNMGPRP, the “shrunken log2 fold change” value is -0.202.

As to RRIRVRPPRLPRPRPRPISRPRP, the “shrunken log2 fold change” value came to 0.107.

Regarding RRIRGRPPRLPRPRPRPHPPPRP, the “shrunken log2 fold change” value was 0.759.

For the sequence RRIRSRPPRLPRPRPRPLPHPRP, the “shrunken log2 fold change” value was 0.277.

Turning to RRIRMRPPRLPRPRPRPSNIPRP, the “shrunken log2 fold change” value is -0.227.

Turning to RRIRTRPPRLPRPRPRPVYSPRP, the “shrunken log2 fold change” value was -0.239.

In the case of RRIRLRPPRLPRPRPRPYATPRP, the “shrunken log2 fold change” value is -0.246.

Regarding RRIRRRPPRLPRPRPRPRGYPRP, the “shrunken log2 fold change” value was 0.398.

Take RRIRNRPPRLPRPRPRPRWAPRP: the “shrunken log2 fold change” value was 0.417.
